Experimental data taken from paper PMC4569319 (Molecular Biology of the Cell, 2015).

Biological target: Murine ΔIBB-importin α1 (mouse, UniProt P52293 70-529)
Test: crystal structure

binding result: binds
Binder: LKEKKKRTVAEEDQLHLDGQENKRRRHDSS [Pom121NLS(291-320), GST cleaved off]
